Assay results as given in the DeepSol protein solubility set.

Assay: soluble on expression in E. coli; label from the status in PepcDB or PDB records

Sequence	soluble on expression in E. coli
MAHHHHHHMASVDTQWAIKSILQLGHHHLRHGAETTSSSSSCLVRPTSPPFRSASKAVQVTAMPRLMRASCDPSYVILLAKRPSGIAGVSLRPGNRVPWTGLPAAASSLVSAPCSKKTRLLASYLQRRGFATIRPVATDTHSSPSQFRPVQRSMPLLLHTSHLIGWKLNDASPAFPVYAHTLAELQQLRSSDVAALKPQHCLIANEYCEWDNWREVLGEPGWDLFSADEDAVERLLQDGLAISALEEEAGLYPVEVL	not soluble
MGSDKIHHHHHHMKLSGWGRFPNVDCTVRVARSEVDVRAAVAASPLIARGNGRAYGDAALNRGLTLDMTGMDRMLSFEDGVLVAEAGVLLGDIIHTFLPRGWFPMVTPGTKYVSLGGAIAADVHGKNHHLDGSFRSCVDWVDLMGPDGAVTRVTREDDLFDWTLGGMGLTGVILRAQIRLRAVETSFIAQETRALTSLTDTLEAFEDTLDALYSVAWIDCSDGPHHGHSLLLLGRHATPGDLPKRQKPLEVKRRAKLPVPFGAPPFLFRGLWLRALNGIYWRRGAKRAGHTIVDWDSYFYPLDALANWNRLYGRNGFLQFQCALPLETAADGLAALMAEIAASQSGSVLSVLKRFGPQSGHFSFPMPGYTLALDFPANERSLALMERLDAITLAHKGRFYLAKDARMPEAVVKADARAEAFAAMRTQMGLRDRFASEQSERLGL	not soluble
MGSDKIHHHHHHMAVRMLDIARRFNMLSERIRRESVELGIPAIDPEDGLILSSAAFYVGGGTGSYVDAGAGIGYSTIWIAYGAYHRCTDITCKIVAIEYDVELASILSRNLREVEAMFRGRIEFEVVSGDALDYFSRLEEKGREVFDMAFVDIEKGDYPEALERLENLLTAGGVAAFYNAFQPPPPPLFFDMVSKRPWKPVVLPTPAGLLLAVKTAG	not soluble
MAHHHHHHMKGGKQKFDRAIHKTEGMDGALPNEVLEPLEEVYKPSLRVDVTAEPPEENENSTGTTPVTSVTPHVSTNIFVAGLPPSWDENDLRKKFQEFGEIISTRLVRQRHFAFVMFRRPESAHAAINATHLTHPTPNSSMFLHVSIAMHDEGVDEIPNDRIFIRGLPQWANKDHLRHCFSRFGSIVDSAVLMNPLGQCKGSGFVQFSSIDEATEAIKARKTIRIENWDAELEIKYSETAEVRQQRQERNKNRQRHSPKYGQHQLQYQLFNSSASVVSPIPAFPVLGMSAPFPFFYPRPALSPAASPHIIYSPMVPSPVVPVYPSPPVVFKSKLDLFPSSGDLLFTGVSLTESTLLSLLQCYGKVESKDIFDDAGAAVRMVDRGLHAIIVQQLNGTIFPDGKVMSVVLYP	not soluble
SALSSAASLLGSPLTNDFAVISMSDLLTPLDTIMKRVEAFAKADIVTVIYNPRGSRFPDNIRKAVDIFLRYRNPETAVGIVRNAYRERQSVTITTLSNLNIEDIDMLTTVIIGNSETF	not soluble
QVQLQESGGGLVQAGGSLRLSCAASGSIFSINSMDWDRQAPGKQRELVATITSGGSTNYADSVKGRFTISRDNAKNTVYLQMNSLKPEDTAVYYCNANVKTWAGMTRDYWGQGTQVTVSSHHHHHH	soluble
MAHHHHHHMERTNLGHGAVGSLAQLCDELRKSYAAAKEIEQRDTTLTKSETANTLKETSNLFALGMEKLISSDGNVVEVKDAIALAEDAEREVAALRAEKARLQSTEDGHRSKLSATGSDAEVEAFVAYAKELSELHDHLFLARVVFKGVLTKRLEDIRDDRLSQQDKRFTDPKSWDVKKGVLERMLQSLRTKTAQLQLSAKTYLDEDEALFLEVMNLATEAGDHVRRGDAMREARDEKLKVFYAECAKLTGWCRQQLTNLEAMQEPDHVQEYCATLADNYPTMSNNFAVLFNSVQEYVQASLIPVHKALLEAEEVWLYLQVSTLERLSKTLFEIHPQSPLDVEVEKYSSYPEHAAKFLQDLERYLAAQHRQQDEVAELDSVHKECQEVLHTLSGQFAELPSEVHAFAQRAQALRAGYQCFREALLQRLTYVSPAASTVVESKRRQEEFENCVRELKSWAAEASHGESWRDIYSKIVEIKQMIKSEQASLEMKRERAVASGQSR	not soluble
MATVTELKAVLKDTLEKRGVLGHLKARIRAEVFNALDDDREPRPSLSHENLLINELIREYLEFNKYKYTASVLIAESGQPVVPLDRQFLIRELNAFEESKDNSIPLLYGILAHFLRGPPDGAQNVLLTESTLHPATKHLSWKPSRRPDDDHVRKDTGPRTTTEELPAAAQAVSR	soluble
MGSDKIHHHHHHAQDNPFKPEWFVSGGINGVTALNGSANNILGGKVSGGVWLNKIIGLRVDAEAGNVWLKGGYNAVTVGAGADILVNLMKNYTDEDRKFRLNAIFGLGYNYYSFGDDYPRLSKTNTMSGNFSLQAAFRLNSHLSIFAEPGIKISTKFYDIENKDDVFAGGMMTVGVIYKF	not soluble
MANRVTMMMKIFENQTAMLHKALNDQHTIESKYKQMETNYENLILKKNLLEGEIQRLRDPERVKSATKLERTKKPGKSEKKKDKDLERNISPNREFKSFEELHQIQETERNKTQLDNVLPQKSEMFKEERTKTKRGQSQNKSKVKIEDSKDSLPKKSDTQLGEQRKDQISSDQSKRAK	soluble
MSLATKFPKNFKLATATAAYQIEGAKDLNGRGFSTWDAIRLEPGRILDNSDPDLSCDGLLKYKEDVALLAEIGVTNYRFSISWSRILPDGTLSTINEEGIKFYRDLCLLLKENNIEPVVTLFHFDMPLAIYDNGTAWLNRENCEHFEKFADLCFQKFGDLVKTWITYNEINCQAWGSIVKVEGEFWLCPERPEIENHKQAPYFGAANMLLTHAKIYRNYDQNYKPTQHGILGITNGGRFCFPATDSQEDIEACNRARDWLFNFTIEPILSGSGDFPVLMRERMPFIPKFSEEEKEIIKGSTDFIGINYYLSFLVRAPKDGEKASSQSQHDGGYVFVEGKWDKICGETWIRYAPDGLLKILRYVKEKYANTPVFITENGCMDIVGQDQEDAFHDQHRIDYISGHLEAVAKALDEGCNVIGYTVWTLMDNFEWDDGFELKFGLCEVDFESPDKTRTMKKSAYFYKEFIKEFKDFHGI	not soluble
MGSDKIHHHHHHMKVLVVDNSRWWGGAEKNLQTLVDNRSNAIEFNVLSDYPMSHNITYRDFCGVRYRFDNSYFIRYLDNKYQIKGMRIFRLIYKSLYLIPSLVRYNPDIVHFNLYRSSDILDIIVCKILRKKVVLHIRSLANRIKIAPLTIKLADAVICVSKSVKQGFSFTGNKYHVIYNGIDSKYYHLVPQDQAREKLGINLTSFVIGSIGNLEREKGHDVAVKALKKIIDDGNVVVALIIVGKDSTINESETKRILTLSKDLGVQGHIKIFSISHKDIHYVYSACDIVLTLCIDGEAFGMIPLEAAMHNRPVIATNVGACRETIIHNQTGLLCEPNSPVALVQAIDTIMKDKKYCDQLTESARNRVLHKYSADAYRDSVYKIYITITKENKRKL	not soluble
CSEVNVVKERPKTDEHKSYSCSFKGCTDVELVAVICPYCEKNFCLRHRHQSDHDCEKLEVAKPRMAATQKLVR	soluble
MGSDKIHHHHHHMNYIKRSLERKFLHMSKFFKAVLVTGARQVGKTTMLKHLAEGQNRTYVTLDNLMARNLAKTDPVLFFQTYKPPVLIDEVQYAPELFSQIKILCDSSEEPGLIWLTGSQQFEMMKNVRETLAGRIGIMTLYSLSKNEKDGIEFENSLDFSPECLFARQRIAEKNDVLKVFEHIWRGGMPQVLHADAEQRQEYYNAYVNTYLMRDVAELGGITDSLRFAKFLTACAALTSEQVNYKNLSEAADISQPTAKEWLRLLEGLGIVYLLQPYANNAFKRLTKAPKLYFCDTGLCAHLSMWLTPETLMNGAASGHYFENHVVAEMLKSYAYSASKAVITYFRDSNAKEIDIIVEANNQLHPLEIKKSASPNSREINKYTILDKSSIKRGHGGILCLCEEVVPIDEQNCFIPCNLI	not soluble
MAHHHHHHMNVFDCTLCVATTISQFLVDEVMKQVSLYGGFRHVVRCHGNPQEDFMDVKQSGEPIVLLIANQAGREALKFLCDDYHLPKEQRRVLWIHSISSGLDSYKLNELVKELQDIPLTNARGCYSSILAEHVMYSMLYFYRQTWRSLASRAEHKWDPFLMVELRGRKVGIIGYGDIGRASAKLLSAFGMEVTGVKRSASTKEVDEYGVRLVHGDAERERVLRESDFVVNILPGTEETKRLFNKELFSMMKPSAVYINIGRGITQNEDDLACALRDGVIRGASVDVFEREPLPAESPLWDISDDKILLTYHNAVLSDDFCKKAIDCFMLLARDFGSDGFASNVIQIDKFYCG	soluble
